Measured values published in patent publication US20100076060A1.

Target: OX40 (CD134) on mouse lymph node T cells (mouse) (UniProt P47741)
Assay: cell-based or functional assay

B1: OX40 agonistic antibody (OX86) (antibody, from another filing, V domains shown)
VH: QVQLKESGPGLVQPSQTLSLTCTVSGFSLTGYNLHWVRQPPGKGLEWMGRMRYDGDTYYNSVLKSRLSISRDTSKNQVFLKMNSLQTDDTAIYYCTRDGRGDSFDYWGQGVMVTVSS
VL: DIVMTQGALPNPVPSGESASITCRSSQSLVYKDGQTYLNWFLQRPGQSPQLLTYWMSTRASGVSDRFSGSGSGTYFTLKISRVRAEDAGVYYCQQVREYPFTFGSGTKLEIK
For B1, the interferon-gamma secretion (ELISA), after subtracting background of the negative control was 15 pg/mL.
